Where a SMILES comes first, the peptide text is derived from it. Where no end group is shown, it is not given here. [ ]: non-standard residue; d: D form.
Molecular target: T1, complexes of GFP-MUC1-CD and Flag-MUC1-CD (Homo sapiens, UniProt P15941)
T1 construct: expressed in transfected cells; host or cells: 293 cells
T1 sequence (P15941 1184-1255 limits assumed): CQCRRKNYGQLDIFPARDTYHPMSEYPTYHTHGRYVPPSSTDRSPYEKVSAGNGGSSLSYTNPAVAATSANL
Assay: Coprecipitation of GFP-MUC1-CD and Flag-MUC1-CD in transfected 293 cells
Type: cell-based
Settings: 5 μM peptide for 3 d
Procedure: FIGS. 1A-D. MUC1/CQC peptide blocks MUC1 oligomerization. (FIG. 1A) Schematic representation of the MUC1-C subunit and the 72-amino acid sequence of MUC1-CD (SEQ ID NO: 1) are shown. The N-terminal 15 amino acids (shaded sequence; SEQ ID NO: 3) MUC1/CQC (SEQ ID NO: 63) and mutated MUC1/AQA (SEQ ID NO: 60) peptides were synthesized with the poly-dArg transduction domain. (FIG. 1B) His-MUC1-CD (1.4 mg/ml) was immobilized on a sensor chip in a BIAcore. MUC1/CQC was injected over the chip at 10 μM. Raw binding data were analyzed by BIAevaluation software version 3.0 and fit to a 1:1 Languir binding model. (FIG. 1C) Purified His-MUC1-CD (1.5 mg/ml) was incubated with PBS, 200 μM MUC1/CQC or 200 μM MUC1/AQA for 1 h at room temperature. The proteins were separated in a non-reducing SDS-polyacrylamide gel and analyzed by immunoblotting with anti-MUC1-C. […]
Whole cell and nuclear lysates were prepared as described (Leng et al., 2007). […] Immunoprecitates and soluble proteins were analyzed by immunoblotting with anti-His (Cell Signaling Technology, Danvers, Mass.), anti-GFP (Millipore, Danvers, Mass.), anti-Flag, anti-MUC1-C (Abl; NeoMarkers, Fremont, Calif.), anti-lamin B (EMD, La Jolla, Calif.) or anti-β-actin (Sigma). Reactivity was detected with horseradish peroxidase-conjugated second antibodies and chemiluminescence. […]

| Molecule | interaction between Flag-MUC1-CD and GFP-MUC1-CD |
| --- | --- |
| MUC1/AQA: control peptide in which the CQC motif was altered to AQA, with poly-dArg transduction domain; SEQ ID NO: 60 ([dR][dR][dR][dR][dR][dR][dR][dR][dR]AQARRKNYGQLDIFP) [reference compound] | no apparent effect |
| CC[C@H](C)[C@H](NC(=O)[C@H](CC(=O)O)NC(=O)[C@H](CC(C)C)NC(=O)[C@H](CCC(N)=O)NC(=O)CNC(=O)[C@H](Cc1ccc(O)cc1)NC(=O)[C@H](CC(N)=O)NC(=O)[C@H](CCCCN)NC(=O)[C@H](CCCNC(=N)N)NC(=O)[C@H](CCCNC(=N)N)NC(=O)[C@H](CS)NC(=O)[C@H](CCC(N)=O)NC(=O)[C@H](CS)NC(=O)[C@@H](CCCNC(=N)N)NC(=O)[C@@H](CCCNC(=N)N)NC(=O)[C@@H](CCCNC(=N)N)NC(=O)[C@@H](CCCNC(=N)N)NC(=O)[C@@H](CCCNC(=N)N)NC(=O)[C@@H](CCCNC(=N)N)NC(=O)[C@@H](CCCNC(=N)N)NC(=O)[C@@H](CCCNC(=N)N)NC(=O)[C@H](N)CCCNC(=N)N)C(=O)N[C@@H](Cc1ccccc1)C(=O)N1CCC[C@H]1C(=O)O [MUC1/CQC] (H-[dR][dR][dR][dR][dR][dR][dR][dR][dR]CQCRRKNYGQLDIFP-OH; N-terminus and C-terminus assumed) | disruption of the interaction |

— patent US9546201B2, “MUC-1 cytoplasmic domain peptides as inhibitors of cancer” (DANA-FARBER CANCER INSTITUTE, INC., priority 2008, dated 2017)
